The record followed here is the supplement of paper PMC9170038.

This data set deals with MS2 coat protein. As to the kind of experiment: apparent KD of MS2 coat protein; designed switch direction (-1 OFF switch, 1 ON switch): -1; higher = weaker reporter binding. Put shortly:
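RNA switches sharing common flanks were transcribed by stalled E. coli RNA polymerase on Illumina chips. A doubling series of SNAP-549-labelled MS2 coat protein, from 0.7 or 1.5 nM to 3 µM, was applied in Tris-HCl pH 7.5 buffer with KCl, MgCl2, BSA, DTT, tRNA and Tween-20. Each step lasted 0.8–1.5 h at the bottom of the series and 10–20 min at the top. Normalised cluster fluorescence was curve-fitted, giving apparent KD as the per-design median over clusters.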

[1] abbreviates: Eterna round: R95, input ligand: FMN 200 uM.
Where [2] appears, read: Eterna round: R95, input ligand: microRNA oligo, concentration not stated.
[3] abbreviates: Eterna round: R95, input ligand: none.
Where [4] appears, read: input ligand: microRNA oligo, concentration not stated.

For the sequence “CAAAAGGUAGGAUAUUAUGCCUGUAACAUGAGGAUCACCCAUGUGGUCCGAGACGGAGUUUAAGAAGGACCGAAAA [Masomariat] (puzzle: Exclusion 5)”, the “apparent KD of MS2 coat protein” value under setting [1] came out at 895 nM, the “apparent KD of MS2 coat protein” value under setting [2] came out at 169 nM and the “apparent KD of MS2 coat protein” value under setting [3] was determined as 190 nM.

For the sequence “CAAAGAUAAGGAUAUUGAAGGUUCGACAUGAGGAUCACCCAUGUUAUGUUGGAAAAGGGACAAGAAGGUAUGAAAC [salish99_ex5_r4_211] (Eterna round: R97, puzzle: Exclusion 5)”, the “apparent KD of MS2 coat protein” value was determined as 28.2 nM (input ligand: FMN 200 uM) and 35.8 nM (input ligand: none).

With “CAAGAAUCUAUAUAAAGGCACAUGAGGAUCACCCAUGUGGUCCGUAAAAUCAUGCGACAAGCCAUUUGCUCGUCGUG [Eternabot (L2) Solution 30] (Eterna round: R97, puzzle: Sensor, turn-off variant 1)”, the “apparent KD of MS2 coat protein” value (input ligand: FMN 200 uM) turned out to be 33.2 nM and the “apparent KD of MS2 coat protein” value (input ligand: none) is 37.6 nM.

On to “CAAGCUUUGCGAGGAUAUGAUGGCCUAUAUGCCUCAGAAGGCGCAGAAACUUGAGGAUCACCCAAGUGAUGCAAAUACGAAAAU [Mutated MS2 EX1.9] (Eterna round: R96, puzzle: Exclusion NG 1)”, for which the “apparent KD of MS2 coat protein” value is, setting by setting: (input ligand: FMN 200 uM) 78.1 nM; under setting [4], 17.3 nM; (input ligand: none) 21.8 nM.

In the case of “CAAUAACAAGCGAGAUCCUACAUGAGGAUCACCCAUGUGCUCGUCUUAAAAGGUACUGUGACGAAAGUCACGGUACC [Eli 87 + Mat D67 3] (Eterna round: R97, puzzle: Sensor, turn-off variant 1)”, the “apparent KD of MS2 coat protein” value (input ligand: FMN 200 uM) is 16.9 nM and the “apparent KD of MS2 coat protein” value (input ligand: none) is 23 nM.

Turning to “CAAUUCCGAGGAUAUACAUGAGGAUCACCCAUGUCGGGCCUCAGCGUUUAGCGCCUCAGUAGAAGGCGGGUUUC [JL Riri mod 3] (puzzle: Exclusion 3)”, under setting [2], the “apparent KD of MS2 coat protein” value turned out to be 24.4 nM.

Regarding “CACAAAGUAGGAUAUAGAAUAAAAGACAUGAGGAUCACCCAUGUGUCGUUCAAGGUGAACCUAGAAGGACUGAAAA [EX5 A.28] (Eterna round: R97, puzzle: Exclusion 5)”, the “apparent KD of MS2 coat protein” value by setting is: (input ligand: FMN 200 uM) 45.1 nM; (input ligand: none) 116 nM.

As for “CACAUGUCAGGAUAUGGUCAAGACACAGAAUUAGCUGCGAGCCAGAAGGGACAUGAGGAUCACCCAUGUUCCUG [Eternabot (L1) Solution 58] (Eterna round: R97, puzzle: Exclusion 4)”, the “apparent KD of MS2 coat protein” value by setting is: (input ligand: FMN 200 uM) 19.5 nM; (input ligand: none) 16.3 nM.

“CACCGUUAAAGAGGAUAUCGUACAUGAGGAUCACCCAUGUAAUAAAUGAGAAUUUCGGAUGUAUGCGAGAAGGCUUAAAUCGGC [Ostracism 47 - Jieux - Exclusion NG 2] (Eterna round: R96, puzzle: Exclusion NG 2)”: under setting [4], the “apparent KD of MS2 coat protein” value amounted to 39.5 nM.

With “CACCGUUACACAGGAUAUCUUACAUGAGGAUCACCCAUGUAAUAAAUGAGAAUUUCGAAUGUAAAAGAGAAGGGUGGAAUCGGC [Ostracism 66 - Jieux - Exclusion NG 2] (Eterna round: R96, puzzle: Exclusion NG 2)”, the “apparent KD of MS2 coat protein” value is 73.1 nM (input ligand: FMN 200 uM), 21.8 nM under setting [4] and 30.3 nM (input ligand: none).

With “CACCGUUACUGAGGAUAUCGUACAUGAGGAUCACCCAUGUAAUAAAUGAGAAUUUCGGAUGUAUGCGAGAAGGCAGGAAUCGGC [Ostracism 36 - Jieux - Exclusion NG 2] (Eterna round: R96, puzzle: Exclusion NG 2)”, the “apparent KD of MS2 coat protein” value is, setting by setting: (input ligand: FMN 200 uM) 31.6 nM; under setting [4], 19.5 nM; (input ligand: none) 32.2 nM.

Turning to “CACCGUUAGCGAGGAUAUCGUACAUGAGGAUCACCCAUGUAAUAAAUGAGAAUUUCGGAUGUAUGCGAGAAGGCGCAAAUCGGC [Ostracism 41 - Jieux - Exclusion NG 2] (Eterna round: R96, puzzle: Exclusion NG 2)”, the “apparent KD of MS2 coat protein” value under setting [4] stood at 45.3 nM.

As to “CACCUGAAUACAGGAUAUCUUACAUGAGGAUCACCCAUGUAAUAAAUGAGAAUUUCGAAUGUAAUAGAGAAGGGUAGAUAAGGC [Ostracism 87 - Jieux - Exclusion NG 2] (Eterna round: R96, puzzle: Exclusion NG 2)”, the “apparent KD of MS2 coat protein” value is, setting by setting: (input ligand: FMN 200 uM) 39.2 nM; under setting [4], 26.5 nM; (input ligand: none) 33.1 nM.

For the sequence “CACGAAAUGUGAGGAUAUGUGCGACAAAGUUGCACAGAAGGCACAUGAGGAUCACCCAUGUAAGCUAGGUCGAAAGACCUAGCG [Omei Exc(NG)1 Av2] (Eterna round: R96, puzzle: Exclusion NG 1)”, the “apparent KD of MS2 coat protein” value (input ligand: FMN 200 uM) was found to be 269 nM, the “apparent KD of MS2 coat protein” value under setting [4] is 56.3 nM and the “apparent KD of MS2 coat protein” value (input ligand: none) amounted to 89.8 nM.

Turning to “CACUUACAUGAGGAUCACCCAUGUGAGGAUAUCGUGACCUGACGAGAAGUCAAUGUCACGAGAAGGCACGUGGG [Exclusion 1 (Mod 3 solution 97 by Eternabot)] (Eterna round: R97, puzzle: Exclusion 1)”, the “apparent KD of MS2 coat protein” value by setting is: (input ligand: FMN 200 uM) 11.9 nM; (input ligand: none) 35.9 nM.

Regarding “CAGCCCUGAGGAUAUCCAUCCUUGUACAUGAGGAUCACCCAUGUCUCCCUCUGGGCUUUCGGAGAAGGCAGGUAUC [Megrez-6.2] (Eterna round: R97, puzzle: Exclusion 5)”, the “apparent KD of MS2 coat protein” value (input ligand: FMN 200 uM) was 43.2 nM and the “apparent KD of MS2 coat protein” value (input ligand: none) was found to be 44.5 nM.

On to “CAGCUGAAAGUCAGGAUAUCUAGAGCCUCGGCUCUAGAGAAGGGACAUGAGGAUCACCCAUGUGGUCACAGCUG [BmEx4/5-A2] (Eterna round: R97, puzzle: Brourd's mod of Exclusion 4)”, for which the “apparent KD of MS2 coat protein” value runs as follows: (input ligand: FMN 200 uM) 93.5 nM; (input ligand: none) 619 nM.

As to “CAGCUGAAUGUGAGGAUAUCUAGAGCCUCGGCUCUAGAGAAGGCACAUGAGGAUCACCCAUGUCUCAACAGCUG [BmEx4/2-A2] (Eterna round: R97, puzzle: Brourd's mod of Exclusion 4)”, the “apparent KD of MS2 coat protein” value is 249 nM (input ligand: FMN 200 uM) and 35.9 nM (input ligand: none).

Regarding “CAGGUGUUAGGAUAUCGGAGAUCGAGGCCGACGGGAAAAGCCGAGAAGGAACAUGAGGAUCACCCAUGUAGGUG [JR_Exclu4_Sub035] (puzzle: Exclusion 4)”, the “apparent KD of MS2 coat protein” value under setting [1] was 347 nM, the “apparent KD of MS2 coat protein” value under setting [2] was determined as 235 nM and the “apparent KD of MS2 coat protein” value under setting [3] was 223 nM.

As for “CAGUACUGAGGAUAUACAUGAGGAUCACCCAUGUCCUUCAGCUAGGAAACUAGCGAAAGUAGAAGGCAGUACUG [Eli x3 4.001] (Eterna round: R97, puzzle: Exclusion 3)”, the “apparent KD of MS2 coat protein” value runs as follows: (input ligand: FMN 200 uM) 366 nM; (input ligand: none) 13.4 nM.

For “CAGUACUGAGGAUAUACAUGAGGAUCACCCAUGUGCCUAAGGUAGGAUACUACCAUUAGUAGAAGGCAGUACUG [Fiskers Ex 3 828 mod 16] (puzzle: Exclusion 3)”, the “apparent KD of MS2 coat protein” value under setting [2] stood at 13.6 nM.

In the case of “CAGUACUGAGGAUAUACAUGAGGAUCACCCAUGUGGUUUAGUGCACGCGUACGUGUACGUAGAAGGCAGUACUG [JL 3.27 m8] (Eterna round: R97, puzzle: Exclusion 3)”, the “apparent KD of MS2 coat protein” value is, setting by setting: (input ligand: FMN 200 uM) 78.3 nM; (input ligand: none) 18.9 nM.

“CAGUACUGAGGAUAUACAUGAGGAUCACCCAUGUGUGAGAUACUAGUGAGGUCGAUUAGUAGAAGGCAGUACUG [Mat X3R4 m25] (Eterna round: R97, puzzle: Exclusion 3)”: the “apparent KD of MS2 coat protein” value runs as follows: (input ligand: FMN 200 uM) 957 nM; (input ligand: none) 26.3 nM.

With “CAGUACUGAGGAUAUACAUGAGGAUCACCCAUGUGUGUGAAAUUUAUGUGGUCGUAAUGUAGAAGGCAGUACUG [JR_Ex3_Sub028] (Eterna round: R97, puzzle: Exclusion 3)”, the “apparent KD of MS2 coat protein” value by setting is: (input ligand: FMN 200 uM) 30.5 nM; (input ligand: none) 62.9 nM.

“CAGUACUGAGGAUAUACAUGAGGAUCACCCAUGUGUUCCAGCUAGGAAACUAGCAAAAGUAGAAGGCUGUACUG [salish99_ex3_r3_088] (puzzle: Exclusion 3)”: the “apparent KD of MS2 coat protein” value under setting [2] was 17.9 nM.

Take “CAGUACUGAGGAUAUACAUGAGGAUCACCCAUGUGUUCCAGCUAGGAAACUAGCAUAUGUAGAAGGCAGUACUG [Eli x3 4.06] (Eterna round: R97, puzzle: Exclusion 3)”: the “apparent KD of MS2 coat protein” value reads like this: (input ligand: FMN 200 uM) 578 nM; (input ligand: none) 298 nM.

“CAGUACUGCAGGCUUUGGGACAUGAGGAUCACCCAUGUUCGUCUUAUUGAUCUAGGUACGCUGACGUACCUAGAUCU [JL-sv1-2.14 Brourd mod] (puzzle: Sensor v3, turn-off variant 1)”: the “apparent KD of MS2 coat protein” value by setting is: under setting [1], 18.8 nM; under setting [2], 20 nM; under setting [3], 17.6 nM.

Take “CAGUGCGUAGGAUAUACGAGGGCCCUUUAUUGUUGAUAAUGACAUGAGGAUCACCCAUGUAGAAGGGCGUCAUG [Eternabot (L1) Solution 45] (Eterna round: R97, puzzle: Exclusion 2)”: the “apparent KD of MS2 coat protein” value runs as follows: (input ligand: FMN 200 uM) 87.3 nM; (input ligand: none) 24.8 nM.

Take “CAUACACAUGAGGAUCACCCAUGUGAGGAUAUUCGCGCGCGCGCCCGGGCGCGCGCGCGGAGAAGGCACGUGCG [My first try] (Eterna round: R97, puzzle: Exclusion 1)”: the “apparent KD of MS2 coat protein” value is 76.7 nM (input ligand: FMN 200 uM) and 51.2 nM (input ligand: none).

As for “CAUACAGUAGUUAGGAUAUUGCAACGUACACGGAACGAGAAGGGACAUGAGGAUCACCCAUGUAGAUUGUAAAG [EX-4 Malc #8] (puzzle: Brourd's mod of Exclusion 4)”, the “apparent KD of MS2 coat protein” value under setting [2] came out at 20 nM.

For “CAUACUCAAGUCAGGAUAUAGAGUCGGAUACGGAUCUAGAAGGGACAUGAGGAUCACCCAUGUAGAGAGUAAAG [EX-4 Malc #25] (puzzle: Brourd's mod of Exclusion 4)”, the “apparent KD of MS2 coat protein” value reads like this: under setting [1], 88 nM; under setting [2], 38 nM; under setting [3], 21.1 nM.
